Patent CN117736314A

What was measured:
[1] = target: SARS-CoV-2 Omicron BA.5 S蛋白 (病毒颗粒上) (SARS-CoV-2); assay: cell-based or functional assay
[2] = target: SARS-CoV-2 Omicron(BA.2) S蛋白 (病毒颗粒上) (SARS-CoV-2); assay: cell-based or functional assay

Substance: LY-CoV1404(bebtelovimab) (antibody)
- IC 50 (ng/mL), live virus neutralisation, FFA on Vero cells [1]: 7.99 ng/mL
- IC 50 (ng/mL), live virus neutralisation, FFA on Vero cells [2]: 11.2 ng/mL
